Laboratory results from paper PMC4775432 (2015).

Biological target: T1, KRAS G12D peptide on HLA-A*11:01 (human)
T1 peptide: VVGADGVGK
Assay: cytokine release

B1: TRAV4-4*01/BV12-2*01 (TCR)
alpha TRAV4-4/DV10*01 49*01 CDR3: CAADSSNTGYQNFYF
beta TRBV12-2*01 1-2*01 CDR3: CASSLTDPLDSDYTF
B1: no recognition.
